Target: pooled human IgG (human IgG1, 2, 3 and 4) (human)
Experiment: cell-based or functional assay
Note: test concentration or dose not given here.

Binder	Enzyme Activity Endpoint Assay: Fab′2	Enzyme Activity Endpoint Assay: Fc	Enzyme Activity Endpoint Assay: IgG	Enzyme Activity Endpoint Assay: scIgG
PRT-378 (enzyme) MVTSVWTKGVTPPTNFTYGEDVLHAPYVANQGWYDITKTFNGKDDLLCGAATAGNMLHWWFDQNKEQIENYLKKHPEKQKINFNGEQMFDVKEAIDTKDSQLDSKLFEYFKEKAFPSLSTKHLGVFPDHVIDMFINGYRLSLTNHGPTPVKRGSKDPRGGIFDAVFTRGDQSKLLTNRHDFKEKTLKEISDLIKQELTEGKALGISHTYANVRINHVINLWGADFDAEGNLEAIYVTDSDSNASIGMKKYFVGVNSNGKVAISAKEIEEDNIGAQVLGLFTLSTGQDIWNQTN	477 ng/µL	319 ng/µL	0 ng/µL	207 ng/µL
PRT-387 (enzyme) MVTSVWTKGVTPPTNFTYGEDVLHAPYVANQGWYDITKTFNGKDDLLCGAATAGNMLHWWFDQNKEQIENYLKKHPEKQKINFNGEQMFDVKEAIDTKDSQLDSKLFEYFKEKAFPYLSTKHLGVFPDHVIDMFINGYRLSLTNHGPTPVKRGSKDPRGGIFDAVFTRGDQSKLLTNRHDFKEKTLKEISDLIKQELTEGKALGISHTYANVRINHVINLWGADFDAEGNLEAIYVTDSDSNASIGMKKYFVGVNSSGKVAISAKEIEEDNIGAQVLGLFTLSTGQDIWNQTN	605 ng/µL	366 ng/µL	0 ng/µL	242 ng/µL
PRT-386 (enzyme) MVTSVWTKGVTPPTNFTYGEDVLHAPYVANQGWYDITKTFNGKDDLLCGAATAGNMLHWWFDQNKEQIENYLKKHPEKQKINFNGEQMFDVKEAIDTKDSQLDSKLFEYFKEKAFPYLSTKHLGVFPDHVIDMFINGYRLSLTNHGPTPVKRGSKDPRGGIFDAVFTRGDQSKLLTNRHDFKEKTLKEISDLIKQELTEGKALGISHTYANVRINHVINLWGADFDAEGNLEAIAVTDSDSNASIGMKKYFVGVNSNGKVAISAKEIEEDNIGAQVLGLFTLSTGQDIWNQTN	519 ng/µL	337 ng/µL	0 ng/µL	240 ng/µL
PRT-379 (enzyme) MVTSVWTKGVTPPTNFTYGEDVLHAPYVANQGWYDITKTFNGKDDLLCGAATAGNMLHWWFDQNKEQIENYLKKHPEKQKINFNGEQMFDVKEAIDTKDSQLDSKLFEYFKEKAFPYLSTKHLGVFPDHVIDMFINGYRLSLLNHGPTPVKRGSKDPRGGIFDAVFTRGDQSKLLTNRHDFKEKTLKEISDLIKQELTEGKALGISHTYANVRINHVINLWGADFDAEGNLEAIYVTDSDSNASIGMKKYFVGVNSNGKVAISAKEIEEDNIGAQVLGLFTLSTGQDIWNQTN	599 ng/µL	370 ng/µL	0 ng/µL	226 ng/µL
PRT-394 (enzyme) MVTSVWTKGVTPPTNFTYGEDVLHAPYVANQGWYDITKTFNGKDDLLCGAATAGNMLHWWFDQNKEQIENYLKKHPEKQKINFNGEQMFDVKEAIDTKDSQLDSKLFEYFKEKAFPYLSTKHLGVFPDHVIDMFINGYRLSLTNHGPTPVKRGSKDPRGGIFDAVFTRGDQSKLLTNRHDFKEKTLKEISDLIKQELTEGKALGISHTYANVRINHVINLWGADFDAEGNLEAIYVTDSDSEASIGMKKYFVGVNSNGKVAISAKEIEEDNIGAQVLGLFTLSTGQDIWNQTN	482 ng/µL	323 ng/µL	0 ng/µL	209 ng/µL
PRT-443 (enzyme) MSQTEDSESLQRLRDIEDFQAEKKKQNVVYTKWLDGVDVKDHDFRKIVDGNIAYYATPLLNGRGFYDINKDFNRDSDKCAAAVAANMFHYWLDRNRDNVDRFLRQNPEKHGIIELPDEQLKLSDFLNTYESDDGYRDKSKLFDFISNNFNGPVWTDKLLDNYINGYAYNYKYGRTIEDPTKNTSKINFFKEVFNEKILTNNHSIRNQNEFSVLLSEALYTGKAIGLSYGPAGLRHSLGHIISVWGADLDADGNVVAIYVTDSDDKKLTIGDERVGLKRYKISTDDEGRLRLTAYEETHNTGGQIRGLWTLDTGKQAWADYFDKTEQTGTDQAEQ	17 ng/µL	0 ng/µL	431 ng/µL	535 ng/µL
PRT-444 (enzyme) MSQTEDSESLQRLRDIEDFQAEKKKQNVVYTKWLDGVDVKDHDFRKIVDGNIAYYATPLLNGRGFYDINKDFNRDSDKCAAAVAANMFHYWLDRNRDNVDRFLRQNPEKHGIIELPDGQLKLSDFLNTYESDDGYRDKSKLFDFISNNFNKPVWTDKLLDNYINGYAYNYKYGRTIEDPTKNTSKINFFKEVFNEKILTNNHSIRNQNEFSVLLSEALYTGKAIGLSYGPAGLRHSLGHIISVWGADLDADGNVVAIYVTDSDDKKLTIGDERVGLKRYKISTDDEGRLRLTAYEETHNTGGQIRGLWTLDTGKQAWADYFDKTEQTGTDQAEQ	494 ng/µL	321 ng/µL	0 ng/µL	286 ng/µL
PRT-402 (enzyme) MVTSVWTKGVTPPADFTQGEDVFHAPYVANQGWYDITKTFNGKDDLLCGAATAGNMLHWWFDQNKEYIEAYLKKHPEKQKIMFGDQELLDVRKAINTKGSQKNSELFNYFRDKAFPNLSARRLGVMPDLVLDMFINGYYLNVTKTQTTDVNRTYQEKDKRGGIFDAVFTRGDQSKLLTSRHDFKEKGLKEISDLIKQELTEGKALGLSHTYANVRLNHVINLWGADFDSDGNLKAIYVTDSDSNASIGMKKYFVGVNSAGKVAISAKEIKEDNIGAQVLGLFTLSTGQDIWNQTN	530 ng/µL	342 ng/µL	0 ng/µL	188 ng/µL
PRT-395 (enzyme) MVTSVWTKGVTPPADFTQGEDVFHAPYVANQGWYDITKTFNGKDDLLCGAATAGNMLHWWFDQNKEYIEAYLKKHPEKQKIMFGDQELLDVRKAINTKGSQKNSELFNYFRDKAFPTLSARRLGVMPDLVLDMFINGYYLNVTKTQTTDVNRTYQEKDKRGGIFDAVFTRGDQSKLLTSRHDFKEKGLKEISDLIKQELTEGKALGLSHTYANVRINHVINLWGADFDSDGNLKAIYVTDSDSNASIGMKKYFVGVNSAGKVAISAKEIKEDNIGAQVLGLFTLSTGQDIWNQTN	544 ng/µL	358 ng/µL	0 ng/µL	204 ng/µL
PRT-410 (enzyme) MVTSVWTKGVTPPADFTQGEDVFHAPYVANQGWYDITKTFNGKDDLLCGAATAGNMLHWWFDQNKEYIEAYLKKHPEKQKIMFGDQELLDVRKAINTKGSQKNSELFNYFRDKAFPNLSARRLGVMPDLVLDMFINGYYLNVTKTQTTDVNRTYQEKDKRGGIFDAVFTRGDQSKLLTSRHDFKEKGLKEISDLIKQELTEGKALGLSHTYANVRINHVINLWGADFDSDGNLKAIYVTDSDTNASIGMKKYFVGVNSAGKVAISAKEIKEDNIGAQVLGLFTLSTGQDIWNQTN	567 ng/µL	297 ng/µL	206 ng/µL	0 ng/µL
PRT-417 (enzyme) MTITSVWTKGVTPPTPEDFRYNNEDVLHAPYVANQGWYDITKTFDGKDNLLCGAATAGNMLHWWFDQNKEEIERYLKKHPEKQKIIFNNQELFDVKAAIDTKDSQTNSKLFNYFRDKAFPNLSARQLGVMPDLVLDMFINGYYLNLGKTQSTDVNRPYQDKDKRGGIFDAVFTRGDQTTLLTARHDLKNKGLNEISDLIKQELTEGKALALSHTYANVRINHVINLWGADFDAEGELIAIYVTDSDANASIGMKKYFVGVNANGKVAISAKKIEGDNIGAQVLGLFTLSTGQDIWQKLS	193 ng/µL	27 ng/µL	324 ng/µL	0 ng/µL
PRT-426 (enzyme) MTITSVWTKGVTPPTPEDFRYNNEDVLHAPYVANQGWYDITKTFDGKDNLLCGAATAGNMLHWWFDQNKEEIERYLKKHPEKQKIIFNNQELFDVKAAIDTKDSQTNSKLFNYFRDKAFPNLSARQLGVFPDLVLDMFINGYYLNLGKTQSTDVNRPYQDKDKRGGIFDAVFTRGDQTTLLTARHDLKNKGLNEISDLIKQELTEGKALALSHTYANVRINHVINLWGADFDAEGNLIAIYVTDSDANASIGMKKYFVGVNANGKVAISAKKIEGDNIGAQVLGLFTLSTGQDIWQKLS	508 ng/µL	283 ng/µL	243 ng/µL	0 ng/µL
PRT-425 (enzyme) MTITSVWTKGVTPPTPEDFRYNNEDVLHAPYVANQGWYDITKTFDGKDNLLCGAATAGNMLHWWFDQNKEEIERYLKKHPEKQKIIFNNQELFDVKAAIDTKDSQTNSKLFNYFRDKAFPGLSARQLGVMPDLVLDMFINGYYLNLGKTQSTDVNRPYQDKDKRGGIFDAVFTRGDQTTLLTARHDLKNKGLNEISDLIKQELTEGKALALSHTYANVRINHVINLWGADFDAEGNLIAIYVTDSDANASIGMKKYFVGVNANGKVAISAKKIEGDNIGAQVLGLFTLSTGQDIWQKLS	568 ng/µL	27 ng/µL	169 ng/µL	0 ng/µL
PRT-418 (enzyme) MTITSVWTKGVTPPTPEDFRYNNEDVLHAPYVANQGWYDITKTFDGKDNLLCGAATAGNMLHWWFDQNKEEIERYLKKHPEKQKIIFNNQELFDVKAAIDTKDSQTNSKLFNYFRDKAFPNLSARQLGVMPDLVLDMFINGYYLNLGKTQSTDVNRPYQDKDKRGGIFDAVFTRGDQTTLLTARHDLKNKGLNEISDLIKQELTEGKALALSHTYANVRINHVINLWGADFDAEGNLIAIYVTDSDANASIGMKKYAVGVNANGKVAISAKKIEGDNIGAQVLGLFTLSTGQDIWQKLS	382 ng/µL	283 ng/µL	288 ng/µL	149 ng/µL

Source: patent publication US20250027068A1 (published 2025)
